# Experimental data taken from the Immune Epitope Database (IEDB).
# Columns and labels:
# HLA-B*08:01 [1] = test: IEDB peptide-MHC binding, purified MHC/competitive/radioactivity; filed as Kd, often an IC50 or EC50 that approximates it; ≥ and ≤ were set here for values at or beyond the usual limits of such assays
# HLA-A*30:01 = test: as above
# HLA-B*08:01 [2] = test: IEDB peptide-MHC binding, purified MHC/direct/fluorescence; filed as Kd, often an IC50 or EC50 that approximates it; ≥ and ≤ were set here for values at or beyond the usual limits of such assays; details: source organism: Coxiella burnetii Q321
# HLA-A*11:01 = test: IEDB peptide-MHC binding, purified MHC/competitive/radioactivity; filed as Kd, often an IC50 or EC50 that approximates it; ≥ and ≤ were set here for values at or beyond the usual limits of such assays; details: source organism: Dengue virus 2 Jamaica/1409/1983
# HLA-A*03:01 = test: as above; details: source organism: Dengue virus 2 Jamaica/1409/1983
# HLA-A*30:02 = test: as above
# HLA-A*32:01 = test: as above; details: source organism: Lymphocytic choriomeningitis virus (strain Armstrong)
# HLA-A*23:01 = test: as above; details: source organism: Lymphocytic choriomeningitis virus (strain Armstrong)
# HLA-A*26:01 = test: as above
# HLA-A*24:02 = test: as above; details: source organism: Lymphocytic choriomeningitis virus (strain Armstrong)
# HLA-A*29:02 = test: as above; details: source organism: Lymphocytic choriomeningitis virus (strain Armstrong)
# HLA-A*01:01 = test: as above
# HLA-B*18:01 = test: IEDB peptide-MHC binding, purified MHC/direct/fluorescence; filed as Kd, often an IC50 or EC50 that approximates it; ≥ and ≤ were set here for values at or beyond the usual limits of such assays
# HLA-B*44:02 = test: as above; details: source organism: Influenza A virus (A/Duck/Shantou/2144/00(H9N2))
# HLA-B*40:01 = test: as above
# HLA-B*51:01 = test: IEDB peptide-MHC binding, purified MHC/competitive/radioactivity; filed as Kd, often an IC50 or EC50 that approximates it; ≥ and ≤ were set here for values at or beyond the usual limits of such assays; details: source organism: Dengue virus 2 Jamaica/1409/1983
# [3] = source organism: Vaccinia virus WR
# [4] = source organism: Dengue virus 2 Jamaica/1409/1983
# [5] = source organism: Lymphocytic choriomeningitis virus (strain Armstrong)
# [6] = source organism: Influenza A virus (A/Duck/Shantou/2144/00(H9N2))
# [7] = source organism: Dengue virus 4 Philippines/H241/1956
# [8] = source organism: Orthohantavirus hantanense
sequence,measurement,setting,value
AFKNKRLVF,Kd,HLA-B*08:01 [1]; [3],1560 nM
QYIFTGQPLN,Kd,HLA-A*30:01; source organism: Dengue virus 3 Martinique/1243/1999,8840 nM
NPSFKRQII,Kd,HLA-B*08:01 [1]; [3],19.5 nM
HLRVLFSIF,Kd,HLA-B*08:01 [1]; [3],4.66 nM
YLKAKREKL,Kd,HLA-B*08:01 [2],143 nM
KITAEWLWK,Kd,HLA-A*11:01,1440 nM
same,Kd,HLA-A*03:01,99.4 nM
same,Kd,HLA-A*30:01; [4],536 nM
GPDIYKGVY,Kd,HLA-A*30:02; [5],1820 nM
same,Kd,HLA-A*32:01,≥ 77800 nM
same,Kd,HLA-A*23:01,≥ 77700 nM
same,Kd,HLA-A*26:01; [5],≥ 77900 nM
same,Kd,HLA-A*24:02,≥ 77500 nM
same,Kd,HLA-A*30:01; [5],≥ 66200 nM
same,Kd,HLA-A*29:02,2470 nM
same,Kd,HLA-A*01:01; [5],≥ 32200 nM
GIFMTATPPG,Kd,HLA-A*30:01; [4],1220 nM
GEETIEERF,Kd,HLA-B*18:01; [6],3380 nM
same,Kd,HLA-B*44:02,≥ 20000 nM
same,Kd,HLA-B*40:01; [6],134 nM
LTEIASLPTY,Kd,HLA-A*30:02; [7],226 nM
same,Kd,HLA-A*26:01; [7],899 nM
same,Kd,HLA-A*30:01; [7],9340 nM
same,Kd,HLA-A*01:01; [7],1.39 nM
VAFLRFLTI,Kd,HLA-B*08:01 [1]; [4],10.4 nM
same,Kd,HLA-B*51:01,1.89 nM
ITVSGLYPLA,Kd,HLA-A*30:01; [7],462 nM
SNKRKVLAI,Kd,HLA-B*08:01 [1]; [3],1.85 nM
SINVKHTSV,Kd,HLA-B*08:01 [1]; [3],13.3 nM
ALLSRFFNM,Kd,HLA-B*08:01 [1]; [3],2.96 nM
NRRRRTAGV,Kd,HLA-B*08:01 [1]; [4],121 nM
KYSRSKPAA,Kd,HLA-A*30:01; [3],5.71 nM
AEAAGCSMI,Kd,HLA-B*18:01; [8],≥ 20000 nM
same,Kd,HLA-B*40:01; [8],4.5 nM
